From US20240166765A1 (ICONIC THERAPEUTICS, published 2024)

What was measured:
Assay in all cases: cell-based or functional assay
[1] = molecular target: human Tissue Factor on MDA-MB-231 cells (human, UniProt P13726 33-295)
[2] = molecular target: human Tissue Factor (hTF), endogenously expressed on human TF-positive cells (human, UniProt P13726 33-295)
Relipidated TF = Relipidated TF (UniProt P13726 33-295, limits assumed)

B1: 25G1 (antibody, human IgG1, kappa, V domains shown)
VH: QVQLVQSGAEVKKPGASVKVSCKASGYTFRSYGISWVRQAPGQGLEWMGWVAPYSGNTNYAQKLQGRVTMTTDTSTSTAYMELRSLRSDDTAVYYCARDAGTYSPYGYGMDVWGQGTTVTVSS
VL: DIQMTQSPSTLSASVGDRVTITCRASHSIDSWLAWYQQKPGKAPKLLIYKASYLESGVPSRFSGSGSGTEFTLTISSLQPDDFATYYCQLFQSLPPFTFGGGTKVEIKR
% IL8, 2.56 nM Ab [1]: 46%
% IL8, 6.4 nM Ab [1]: 12%
% IL8, 16 nM Ab [1]: 9%
% IL8, 40 nM Ab [1]: 8%
% IL8, 100 nM Ab [1]: 9%

B2: anti-TF antibody 25A5 (antibody, human IgG1, kappa, V domains shown)
VH: QVQLVQSGAEVKKPGASVKVSCKASGYTFDVYGISWVRQAPGQGLEWMGWIAPYSGNTNYAQKLQGRVTMTTDTSTSTAYMELRSLRSDDTAVYYCARDAGTYSPFGYGMDVWGQGTTVTVSS
VL: DIQMTQSPSTLSASVGDRVTITCRASESISNWLAWYQQKPGKAPKLLIYKAYSLEYGVPSRFSGSGSGTEFTLTISSLQPDDFATYYCQQFQKLPPFTFGGGTKVEIKR
% GM-CSF, 2.56 nM antibody, MDA-MB-231 cells + FVIIa [2]: 72%
% GM-CSF, 6.4 nM antibody, MDA-MB-231 cells + FVIIa [2]: 18%

B3: 25G9 (antibody, human IgG1, kappa, V domains shown)
VH: QVQLVQSGAEVKKPGASVKVSCKASGYTFRSYGISWVRQAPGQGLEWMGWVAPYSGNTNYAQKLQGRVTMTTDTSTSTAYMELRSLRSDDTAVYYCARDAGTYSPYGYGMDVWGQGTTVTVSS
VL: DIQMTQSPSTLSASVGDRVTITCQASQSIDSWLAWYQQKPGKAPKLLIYSASYLESGVPSRFSGSGSGTEFTLTISSLQPDDFATYYCQRFQSLPPFTFGGGTKVEIKR
% IL8, 2.56 nM Ab [1]: 51%
% IL8, 16 nM Ab [1]: 15%
% IL8, 40 nM Ab [1]: 14%
% IL8, 100 nM Ab [1]: 13%

B4: 25A5 (antibody, human IgG1, kappa, V domains shown)
VH: QVQLVQSGAEVKKPGASVKVSCKASGYTFDVYGISWVRQAPGQGLEWMGWIAPYSGNTNYAQKLQGRVTMTTDTSTSTAYMELRSLRSDDTAVYYCARDAGTYSPFGYGMDVWGQGTTVTVSS
VL: DIQMTQSPSTLSASVGDRVTITCRASESISNWLAWYQQKPGKAPKLLIYKAYSLEYGVPSRFSGSGSGTEFTLTISSLQPDDFATYYCQQFQKLPPFTFGGGTKVEIKR
% IL8, 2.56 nM Ab [1]: 70%
% IL8, 16 nM Ab [1]: 7%
% IL8, 40 nM Ab [1]: 7%

B5: 25A3 (antibody, human IgG1, kappa, V domains shown)
VH: QVQLVQSGAEVKKPGASVKVSCKASGYTFDVYGISWVRQAPGQGLEWMGWIAPYSGNTNYAQKLQGRVTMTTDTSTSTAYMELRSLRSDDTAVYYCARDAGTYSPFGYGMDVWGQGTTVTVSS
VL: DIQMTQSPSTLSASVGDRVTITCQASQSINNWLAWYQQKPGKAPKLLIYKAYNLESGVPSRFSGSGSGTEFTLTISSLQPDDFATYYCQLFQSLPPFTFGGGTKVEIKR
% IL8, 2.56 nM Ab [1]: 47%
% IL8, 6.4 nM Ab [1]: 9%
% IL8, 16 nM Ab [1]: 8%
% IL8, 40 nM Ab [1]: 8%
% IL8, 100 nM Ab [1]: 8%

B6: 39A (antibody, human IgG1, V domains shown)
VH: QVQLVQSGAEVKKPGSSVKVSCKASGGTFSSNAIGWVRQAPGQGLEWMGSIIPIIGFANYAQKFQGRVTITADESTSTAYMELSSLRSEDTAVYYCARDSGYYYGASSFGMDVWGQGTTVTVSS
VL: EIVMTQSPATLSVSPGERATLSCRASQSVSSNLAWYQQKPGQAPRLLIYGASTRATGIPARFSGSGSGTEFTLTISSLQSEDFAVYYCEQYNNLPLTFGGGTKVEIK
% ETP, TGA 10 min pre-incubation, 10 nM Ab (Relipidated TF): 0%
% Peak IIa, TGA […] min pre-incubation, 10 nM Ab (Relipidated TF): 13%
% Peak IIa, TGA […] min pre-incubation, 50 nM Ab (Relipidated TF): 8%
% Peak IIa, TGA […] min pre-incubation, 100 nM Ab (Relipidated TF): 7%
% ttPeak, TGA 10 min pre-incubation, 10 nM Ab (Relipidated TF): 319%
% ttPeak, TGA 10 min pre-incubation, 50 nM Ab (Relipidated TF): 491%
% ttPeak, TGA 10 min pre-incubation, 100 nM Ab (Relipidated TF): 537%
Lag Time, TGA 10 min pre-incubation, 10 nM Ab (Relipidated TF): 19.6 min
Lag Time, TGA 10 min pre-incubation, 50 nM Ab (Relipidated TF): 30.7 min
Lag Time, TGA 10 min pre-incubation, 100 nM Ab (Relipidated TF): 33.6 min
Peak IIa, TGA […] min pre-incubation, 10 nM Ab (Relipidated TF): 36 nM
Peak IIa, TGA […] min pre-incubation, 50 nM Ab (Relipidated TF): 22 nM
Peak IIa, TGA […] min pre-incubation, 100 nM Ab (Relipidated TF): 19 nM
ttPeak, TGA 10 min pre-incubation, 10 nM Ab (Relipidated TF): 29.3 min
ttPeak, TGA 10 min pre-incubation, 50 nM Ab (Relipidated TF): 41.4 min
ttPeak, TGA 10 min pre-incubation, 100 nM Ab (Relipidated TF): 44.6 min

B7: 54E (antibody, human IgG1, V domains shown)
VH: QVQLVQSGAEVKKPGASVKVSCKASGYTFANYYMHWVRQAPGQGLEWMGIINPSGGITVYAQKFQGRVTMTRDTSTSTVYMELSSLRSEDTAVYYCARGGSKVAALAFDIWGQGTMVTVSS
VL: DIQMTQSPSSLSASVGDRVTITCQASQDISNSLNWYQQKPGKAPKLLIYDASNLETGVPSRFSGSRSGTDFTFTISSLQPEDIATYYCQQYNFHPLTFGGGTKVEIK
% ETP, TGA 10 min pre-incubation, 10 nM Ab (Relipidated TF): 83%
% Peak IIa, TGA […] min pre-incubation, 10 nM Ab (Relipidated TF): 43%
% Peak IIa, TGA […] min pre-incubation, 50 nM Ab (Relipidated TF): 16%
% Peak IIa, TGA […] min pre-incubation, 100 nM Ab (Relipidated TF): 13%
% ttPeak, TGA 10 min pre-incubation, 10 nM Ab (Relipidated TF): 96%
% ttPeak, TGA 10 min pre-incubation, 50 nM Ab (Relipidated TF): 303%
% ttPeak, TGA 10 min pre-incubation, 100 nM Ab (Relipidated TF): 371%
ETP, TGA 10 min pre-incubation, 10 nM Ab (Relipidated TF): 1520 nM·min
Lag Time, TGA 10 min pre-incubation, 10 nM Ab (Relipidated TF): 6.5 min
Lag Time, TGA 10 min pre-incubation, 50 nM Ab (Relipidated TF): 18.3 min
Lag Time, TGA 10 min pre-incubation, 100 nM Ab (Relipidated TF): 22.3 min
Peak IIa, TGA […] min pre-incubation, 10 nM Ab (Relipidated TF): 121 nM
Peak IIa, TGA […] min pre-incubation, 50 nM Ab (Relipidated TF): 44 nM
Peak IIa, TGA […] min pre-incubation, 100 nM Ab (Relipidated TF): 37 nM
ttPeak, TGA 10 min pre-incubation, 10 nM Ab (Relipidated TF): 13.7 min
ttPeak, TGA 10 min pre-incubation, 50 nM Ab (Relipidated TF): 28.2 min
ttPeak, TGA 10 min pre-incubation, 100 nM Ab (Relipidated TF): 33 min

B8: 43B (antibody, V domains shown)
VH: QVQLQESGPGLVKPSQTLSLTCTVSGGSISSGQYWSWIRQHPGKGLEWIGEIYYSGSTRYNPSLKSRVTISVDTSKNQFSLKLSSVTAADTAVYYCARDAPYYYGGGYYYYMDVWGKGTTVTVSS
VL: EIVLTQSPGTLSLSPGERATLSCRASQSVSSSYLAWYQQKPGQAPRLLIYGASSRATGIPDRFSGSGSGTDFTLTISRLEPEDFAVYYCQQVGVVPYTFGGGTKVEIK
% IL8, 2.56 nM Ab [1]: 50%
% IL8, 16 nM Ab [1]: 5%
% IL8, 40 nM Ab [1]: 4%
% IL8, 100 nM Ab [1]: 4%

B9: anti-TF antibody 43D (antibody, human IgG1, V domains shown)
VH: QVQLQQWGAGLLKPSETLSLTCAVYGGSLSGYYWSWIRQPPGKGLEWIGEIGASGSTRYNPSLKSRVTISVDTSKNQFSLKLSSVTAADTAVYYCARDTPYYYEGGYYYYMDVWGKGTTVTVSS
VL: EIVLTQSPGTLSLSPGERATLSCRASQSVSSSYLAWYQQKPGQAPRLLIYGASSRATGIPDRFSGSGSGTDFTLTISRLEPEDFAVYYCQQVGVVPYTFGGGTKVEIK
% GM-CSF, 2.56 nM antibody, MDA-MB-231 cells + FVIIa [2]: 56%
% GM-CSF, 6.4 nM antibody, MDA-MB-231 cells + FVIIa [2]: 24%
% GM-CSF, 16 nM antibody, MDA-MB-231 cells + FVIIa [2]: 13%
% GM-CSF, 40 nM antibody, MDA-MB-231 cells + FVIIa [2]: 11%
% GM-CSF, 100 nM antibody, MDA-MB-231 cells + FVIIa [2]: 12%

B10: anti-TF antibody 43B7 (antibody, human IgG1, V domains shown)
VH: QVQLQESGPGLVKPSQTLSLTCTVSGGSISSGQYWSWIRQHPGKGLEWIGEIYYSGSTRYNPSLKSRVTISVDTSKNQFSLKLSSVTAADTAVYYCARDAPYYYGGGYYYYMDVWGKGTTVTVSS
VL: EIVLTQSPGTLSLSPGERATLSCRASESVDSSYLAWYQQKPGQAPRLLIYGADSRATGIPDRFSGSGSGTDFTLTISRLEPEDFAVYYCQQDGVVPYTFGGGTKVEIK
% GM-CSF, 2.56 nM antibody, MDA-MB-231 cells + FVIIa [2]: 50%
% GM-CSF, 6.4 nM antibody, MDA-MB-231 cells + FVIIa [2]: 17%

B11: anti-TF antibody 43B1 (antibody, human IgG1, V domains shown)
VH: QVQLQESGPGLVKPSQTLSLTCTVSGGSISSGQYWSWIRQHPGKGLEWIGEIYYSGSTRYNPSLKSRVTISVDTSKNQFSLKLSSVTAADTAVYYCARDAPYYYGGGYYYYMDVWGKGTTVTVSS
VL: EIVLTQSPGTLSLSPGERATLSCRASESVDSSYLAWYQQKPGQAPRLLIYGASTRQTGIPDRFSGSGSGTDFTLTISRLEPEDFAVYYCQQAGVVPYTFGGGTKVEIK
% GM-CSF, 2.56 nM antibody, MDA-MB-231 cells + FVIIa [2]: 50%
% GM-CSF, 6.4 nM antibody, MDA-MB-231 cells + FVIIa [2]: 16%

B12: 43B7 (antibody, V domains shown)
VH: QVQLQESGPGLVKPSQTLSLTCTVSGGSISSGQYWSWIRQHPGKGLEWIGEIYYSGSTRYNPSLKSRVTISVDTSKNQFSLKLSSVTAADTAVYYCARDAPYYYGGGYYYYMDVWGKGTTVTVSS
VL: EIVLTQSPGTLSLSPGERATLSCRASESVDSSYLAWYQQKPGQAPRLLIYGADSRATGIPDRFSGSGSGTDFTLTISRLEPEDFAVYYCQQDGVVPYTFGGGTKVEIK
% IL8, 2.56 nM Ab [1]: 55%
% IL8, 6.4 nM Ab [1]: 15%
% IL8, 16 nM Ab [1]: 8%
% IL8, 40 nM Ab [1]: 4%
% IL8, 100 nM Ab [1]: 4%

B13: 5G9 (humanized TF8-5G9, CNTO 860) (antibody, V domains shown)
VH: QVQLVESGGGVVQPGRSLRLSCKASGFNIKDYYMHWVRQAPGKGLEWIGLIDPENGNTIYDPKFQGRFTISADNSKNTLFLQMDSLRPEDTAVYYCARDNSYYFDYWGQGTPVTVSS
VL: DIQMTQSPSSLSASVGDRVTITCKASQDIRKYLNWYQQKPGKAPKLLIYYATSLADGVPSRFSGSGSGTDYTFTISSLQPEDIATYYCLQHGESPYTFGQGTKLEIT
% Peak IIa, TGA […] min pre-incubation, 10 nM Ab (Relipidated TF): 11%
% Peak IIa, TGA […] min pre-incubation, 50 nM Ab (Relipidated TF): 8%
% Peak IIa, TGA […] min pre-incubation, 100 nM Ab (Relipidated TF): 8%
% ttPeak, TGA 10 min pre-incubation, 10 nM Ab (Relipidated TF): 314%
% ttPeak, TGA 10 min pre-incubation, 50 nM Ab (Relipidated TF): 386%
% ttPeak, TGA 10 min pre-incubation, 100 nM Ab (Relipidated TF): 436%
Lag Time, TGA 10 min pre-incubation, 10 nM Ab (Relipidated TF): 19.3 min
Lag Time, TGA 10 min pre-incubation, 50 nM Ab (Relipidated TF): 23.6 min
Lag Time, TGA 10 min pre-incubation, 100 nM Ab (Relipidated TF): 26.7 min
Peak IIa, TGA […] min pre-incubation, 10 nM Ab (Relipidated TF): 30 nM
Peak IIa, TGA […] min pre-incubation, 50 nM Ab (Relipidated TF): 23 nM
Peak IIa, TGA […] min pre-incubation, 100 nM Ab (Relipidated TF): 22 nM
ttPeak, TGA 10 min pre-incubation, 10 nM Ab (Relipidated TF): 29 min
ttPeak, TGA 10 min pre-incubation, 50 nM Ab (Relipidated TF): 34 min
ttPeak, TGA 10 min pre-incubation, 100 nM Ab (Relipidated TF): 37.5 min
